The term Kd denotes the constant that tells how readily two partners part at equilibrium. A low value points to tighter binding.

This note sets out measurements from US20230374114A1 (Dana-Farber, published 2023).

The target of assay [1] is WT Spike (SARS-CoV-2, UniProt P0DTC2 16-1213).
For assay [2], the target named is WT Spike (SARS-CoV2, UniProt P0DTC2 16-1213).
Assay [3] addresses spike protein on live SARS-CoV-2 (isolate USA-WA1/2020) (SARS-CoV2, UniProt P0DTC2 14-1273). Put plainly: cell-based or functional assay.

B1: RBD-R3-E1-G7 (Ab2-10) (scFv, V domains shown)
VH: EVQLVESGPGLVKPSETLSLTCTVSGGSISSYYWSWIRQPAGKGLEWIGRIYTSGSTNYNPSLKSRVTMSVDTSKNQFSLKLSSVTAADTAVYYCARDVGFGWFDRWGQGTLVTVSS
VL: NFMLTQPHSVSESPGKTVTISCTRSSGSIASNYVQWYQQRPGSSPTTVIYEDNQRPSGVPDRFSGSIDSSSNSASLTISGLTTEDEADYYCQSFDSASLWVFGGGTKLTVL
With B1, binding with WT Spike [1] was characterised by a dissociation constant (Kd) of 5.65 pM.

B2: S1-RBD-R3-E1-E8 Ab (Ab 37) (scFv, V domains shown)
VH: QVQLVQSGAEVKKPGASVKVSCKASGYTFTSYGISWVRQAPGQGLEWMGWISTYNGNTNYAQKLQGRVTMTTDTSTSTAYMEVRSLRSDDTAVYYCARDVFGHFDYWGQGTLVTVSS
VL: NFMLTQPHSVSESPGKTVLISCTRSSGNIATNYVQWYQQRPGSAPTTVIYEDNQRPSGVPDRFSGSIDSSSNSASLTISGLKTEDEADYYCKSYDDGNHVFGGGTKLTVL
Turning to B2, in the assay with WT Spike [2], binding was put at a Kd of 9 pM.

B3: S1-R3-T1-H7 (Ab12) (scFv, V domains shown)
VH: EVQLVESGPGVVSPSATLFLTCSVSGGSIRTHSWNWIRQPPGKPLEWIGFIHHSGATNKNPSLKSRVTISSDTSKNEFSLTLTSVTAADTAVYYCARGPGILSYWSRGTLVTVSS
VL: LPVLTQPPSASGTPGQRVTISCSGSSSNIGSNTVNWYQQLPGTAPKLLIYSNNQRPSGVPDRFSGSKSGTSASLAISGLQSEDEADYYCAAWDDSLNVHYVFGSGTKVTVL
Consider B3, for which the Kd with WT Spike [1] was 8.31 pM.

B4: RBD-R3-E1-F5 Ab (Ab_36) (scFv, V domains shown)
VH: QVQLQQSGPGLVKPSQTLSLTCAIFGDSVTSNSAAWNWIRQSPSRGLEWLGRTYYSSKWYNDYAVSVKSRVTINADTSKNQLSLQLNSVTPEDTAVYYCARGWLRLSFDPWGQGTLVTVSS
VL: NFMLTQPHSVSESPGKTVTISCTGSSGSIASNYVQWLQQRLGSAPTTVIYEDNQRPSGVPDRFSGSIDSSSNSASLTISGLKTEDEADYYCQSYDPNNHGVVFGGGTKLTVL
In turn, B4 yielded a Kd in the assay with WT Spike [2] of 9.01 pM.

B5: S1-RBD-R3-T1-G1 Ab (Ab_35) (scFv, V domains shown)
VH: EVQLVQSGAEVKKPGESLRISCKASGYSFTSNWIGWVRQMPGKGLEWMGSIFPGDSDTKYSPSFQGQVTISADRSISTAYLQWSGLKASDTAMYYCARESYNAYGSWGQGTLVTVSS
VL: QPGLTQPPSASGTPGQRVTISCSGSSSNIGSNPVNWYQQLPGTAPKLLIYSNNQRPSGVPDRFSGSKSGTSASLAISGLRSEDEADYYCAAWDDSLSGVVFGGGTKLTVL
B5 had a Kd with WT Spike [2] of 8.9 pM.

B6: Ab 14 IgG (antibody, V domains shown)
VH: QVQLQQSGPGLVKPSQTLSLTCAISGDSVSSNSAAWNWIRQSPARGLEWLGRTYYRSRWYNDYAISMKSRITINPDTSKNQFSLQLESVTPEDTAVYYCAREIRGFDYWGQGTLVTVSS
VL: QSVLTQPPSASGSPGQSVTISCTGTSSDVGAYNFVSWYQHHPGKAPKLIIYDFNKRPSGVPDRFSGSKSGNTASLTVSGLQADDEADYYCSSYAGSNNFDVVFGGGTKLTVL
B6: the “shift of the neutralization IC50 of the IgG against the scFv-Fc” value in assay [3] turned out to be 40 fold.

B7: S1-RBD-R3-T1-F9 Ab (Ab_39) (scFv, V domains shown)
VH: QVTLKESGPTLVKPTQTLTLTCTLSGVSLDTIGMRVSWIRQPPGKALEWLARIDWDDDKFYSTALKTRLTISKDTSKNQVVFTMTSMDPVDTATYYCARSGLLYDLDVWGRGTLVTVSS
VL: QSVVTQPPSVSGAPGQRVTISCTGSDSDIGANFVQWYQQLPGTAPKLLIWRNTNRPSGVPDRFSASKSGTSASLAITGLQAEDEADYFCQSYDSSLSAYVFGGGTKVTVL
The molecule B7 came in with a Kd with WT Spike [2] of 2.04 pM.

B8: Ab 38 (scFv, V domains shown)
VH: QVTLKESGPTLVKPTQTLTLTCTFSGFSLTTSGVSVGWIRQPPGKALEWLALIHWDDDKRYSPSLRSRLTITRDTSKNQVVLTVTDMDPADTGTYYCASFIMTVYAEYFEDWGQGTLVTVSS
VL: EIVLTQSPATLSVSPGERATLSCRASQSVSSNLAWYQQKPGQAPRLLMYDVSTRATGIPARFSGSGSGTEFSLTISSLQSEDFAVYYCQQRGAWPLTFGGGTKVEIK
In turn, B8 had a Kd in the assay with WT Spike [2] of 7.86 pM.
